{
  "source": "paper PMC8610173",
  "target": "NF-Y (NF-YA confirmed by supershift) ((K562 cells)) (UniProt P23511)",
  "sequence (P23511 whole entry)": "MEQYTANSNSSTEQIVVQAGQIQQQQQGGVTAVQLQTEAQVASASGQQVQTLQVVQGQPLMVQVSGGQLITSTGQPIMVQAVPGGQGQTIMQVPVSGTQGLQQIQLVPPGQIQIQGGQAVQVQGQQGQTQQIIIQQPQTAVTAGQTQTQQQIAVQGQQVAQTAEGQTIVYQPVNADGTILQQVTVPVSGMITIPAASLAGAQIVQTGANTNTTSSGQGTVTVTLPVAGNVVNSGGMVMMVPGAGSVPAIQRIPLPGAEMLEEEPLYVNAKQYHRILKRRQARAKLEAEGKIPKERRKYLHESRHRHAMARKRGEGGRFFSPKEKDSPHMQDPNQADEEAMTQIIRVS",
  "assay": "EMSA",
  "data": [
    {"sequence": "AGCCTTGCCTTGACCAATAGCCTTGACAA (double strand) [HBG distal CCAAT box WT]", "values": [
      {"measurement": "binding signal (fold of WT band intensity (reference))", "value": 1}
    ]},
    {"sequence": "AGCCTTGCCTTGACCAATCGCCTTGACAA (double strand) [HBG distal CCAAT box -110 A>C]", "values": [
      {"measurement": "binding signal (fold of WT band intensity)", "value": 1.5}
    ]}
  ]
}
